This is an account of results in patent US20210403538A1.

The target in the test is EBOV GP on recombinant EBOV-eGFP virus (Zaire ebolavirus (EBOV)). Kind of test: cell-based or functional assay.

B1: EBOV-511 (antibody, V domains shown)
VH: QLQLQESGPGLVKPSETLSLSCTVSGDSISANNYFWGWIRQPPGKELEWIGSIHNSGSTYYNPSLKSRVTTSVDTSRTQFSLKLHSVTAADAAIYYCARHLAPISGVIFIPSFFDSWGQGTLVTVSS
VL: EIVMTQSPATLSVSPGERATLSCRASQSVSSNLAWYQQRPGQAPRLLIFDASTRATGVPARFSGSGSGTEFTLTISSLQSEDFALYYCQQYNDWPPRLTFGGGTKVEIK
Turning to B1, the Neutralization, IC50 ng/mL is > 200000 ng/mL.

B2: EBOV-507 (antibody, V domains shown)
VH: QVQLVQSGAEVKKPGASVKVSCKASGYTFNNYLINWVRQAPGQGLEWMGWINPHSGGTEYAQQFQGRLTVTRDTSIRTAYMELRGLTFDDSAMYYCWIWFRSETFDFWGQGTLVTVSS
VL: DIQMTQSPSAMSASVGDRVTITCRASQDISNYLAWFQQKPGQGPKRLIFEASILHSGVPSRFSGSGSGTEFTLTISSLQPEDFATYYCLQHNTYLTFGQGTKVEIK
In the case of B2, the Neutralization, IC50 ng/mL was > 200000 ng/mL.

B3: EBOV-517 (antibody, V domains shown)
VH: EVQLVESGGGLVQPGGSLRLSCGASGFTFNKYWMTWVRQAPGKGLEWVANINQDGSEKYFAESVKGRFTVSRDNAKNSLYLQMNSLRAEDTAVYYCARGASIEVEILYYYHMDVWGKGTLVTVSS
VL: EIVMTQSPATLSVSPGERATLSCRASQSITTHLAWYQQKPGQAPRLLIYDTSTRATGIPARFSGSGSGTEFTLTISNMQSEDFAVYYCQQYHTWPPLTFGGGTKVEIK
Turning to B3, the Neutralization, IC50 ng/mL is > 200000 ng/mL.

B4: EBOV-434 (antibody, V domains shown)
VH: QVQLVQSGAEVKKPGASVKVSCKASGYTFTGYYMFWVRQAPGQGLEWMGWINPNSGGTNYTQKFQGRVTMTRDTSISTAYMELSRLKSDDTAVYYCARDSGELLFVGSDVWGQGTLVTVSS
VL: DIQMTQSPSSVSASVGDRVTITCRASLDISYWLAWYQQKPGKAPKLLIYAASNLQSGVPSRFSGSGSGTDFTLTISSLQPEDFATYYCQQANSFPQTFGQGTRLELK
Turning to B4, the Neutralization, IC50 ng/mL is > 200000 ng/mL.

B5: EBOV-508 (antibody, V domains shown)
VH: QVQLVQSGAEVKKPGASVKVSCKASGYTFINYYMHWVRQAPGQGLEWMGTINPSTGRPNYAQKFQGRVTLTRDTSTTTVDMELSSLTSEDTAVYYCVSFQFYFDYWGQGTLVTVSS
VL: DIQMTQSPSAMSPSVGDRVTITCRASQGINNYLAWFQQKPGKVPKRLIYAASNLQSGVPSRFSGSGSGTEFTLTISSLQPEDFATYYCLQHNSYPWTFGQGTKVEIN
With B5, the Neutralization, IC50 ng/mL was > 200000 ng/mL.

B6: EBOV-451 (antibody, V domains shown)
VH: EVQLVESGGSVVRPGGSLRLSCAASGFKFDEYGMSWVRQAPGKGLEWVSGITWNGGVRTYADSVKGRFTISRDNAKNSVYLQMKSLRGEDTALYYCVSWGERYDAYFDYWGQGTLVTVSS
VL: EIVLTQSPGSLSLSPGERATLSCRASQSVNSRYFAWYQQRPGQAPRLLIYATSTRATGIPDRFSGSGSGTDFTLTISRLEPEDFAVYSCQQYGSSPYTFGQGTKLEIK
For the molecule B6, the Neutralization, IC50 ng/mL is > 200000 ng/mL.

B7: EBOV-520 (antibody, V domains shown)
VH: QVQLQESGPGLGKPSETLSLSCTVSGASIRGYFWNWIRQPPGKGLEWIGYIHSTGSTNYNPSLKSRVTISVDTSKNQVSLNVNSVTAADTAVYFCARGAWNVATVYYYYGMDVWGQGTLVTVSS
VL: EIVLTQSPGTLSLSPGERATLSCRASQSVSSSYFAWYQQKPGQAPRLLISGTSTRAPGIPDRFSGSGSGTDFTLTISRLEPEDFAVYFCQQYGNSLYTFGQGTKLEIK
With B7, the Neutralization, IC50 ng/mL worked out at 5740 ng/mL.

B8: EBOV-514 (antibody, V domains shown)
VH: QVQLQESGPGLVKPSQTLSLTCTVSGASITGGDDFWSWIRQPPGKGLEWIGFIHHSGNAYYRSSLKSRVHFSVDTSKDQFSLTLTSVTAADTAVYYCARDKAQAYGLLYHYHTDVWGKGTLVTVSS
VL: EIVMTQSPATLSVSPGERATLSCRASQSVSSNLAWYQQKPGLAPRLLIYGAFTRATDIPDRFSGSGSGTEFTLTISSLQSEDFAIYYCQYYNDWPPGYTFGQGTKLEIK
Take B8: the Neutralization, IC50 ng/mL is > 200000 ng/mL.

B9: EBOV-442 (antibody, V domains shown)
VH: EVQLVESGGGLVKPGGSLRLSCTGSGGTGFTFKYAGMSWVRQAPGKGPEWIGRIKSRIDGGTTDYAAPVKDRFIVSRDDSRNTLYLQMNSLKTEDTAVYYCATGSGKGPSASFGESYYYYDFINVWGKGTTVTVSS
VL: ESVLTQSPGTLSLSPGERATLSCRASQSISRKYLAWYQQKPGQAPRLLIYGSSSRATGIPDRFSGSGSGTDFTLTISRLEPEDFAVYYCHQYESSPWTFGQGTKVEIK
As for B9, the Neutralization, IC50 ng/mL was 467 ng/mL.

B10: EBOV-518 (antibody, V domains shown)
VH: QVTLKESGPTLVKPTQTLTLTCTFSGFSMNSSGMSVTWIRQPPGKALECLALIYWDDDKWYGPSLETRVTITKDASKNQVVLTMTNMDPVDTATYYCAHSGGLVAGAFDYWGQGTLVTVSS
VL: EIVMTQSPDSLTVSLGERATINCRSSQSVLYRVNSKNYLAWYQQKAGQTPKLIINWASTRESGVPDRFSGSGSGTDFTLTISSLQAEDVAVYYCQQYYNSPRTFGQGTKVEIK
B10: the Neutralization, IC50 ng/mL is > 200000 ng/mL.

B11: EBOV-510 (antibody, V domains shown)
VH: QVQLQESGPGLVKPSQTLSLTCTVSGGSITSGDYYLTWVRQPPGKGLEWIGHIYYSGSTSYNPSLKSRLLMSVDTSKNQFSLRLSSVTAADTAVYYCARESDGDPSRLYFYFAMDVWGQGTLVTVSS
VL: QSALTQPASVSGSPGQSITISCTGTSSDVGGSYFVSWYQHHPGKAPKLMISEVSNRPSGVSNRFSGSKSGNTASLTISGLRTEDEADYYCSSYTSNTTLVFGGETKVTVL
In the case of B11, the Neutralization, IC50 ng/mL was > 200000 ng/mL.

B12: EBOV-446 (antibody, V domains shown)
VH: QVQLVQSGAEVKKPGASVKVSCKASGYTFTDYYIYWVRQAPGQGLEWMGWLNPNSGGTDYAQKFQGRVTMTRDTSIRTAYMDLSRLRSDDTAVYYCARGRRHGAYVDWGQGTLVTVSS
VL: DIQLTQSPSFLSASVGDRVTITCRASQGISTYLAWYQQKPGKAPNLLIYDTSTLQSGVPSRFSGSASGTEFTLTISSLQPEDFATYYCQQLNFYLGGLTFGQGTRLEIK
Regarding B12, the Neutralization, IC50 ng/mL was > 200000 ng/mL.

B13: EBOV-524 (antibody, V domains shown)
VH: QVQLVESGGGVVQPGGSLRLSCAASGFKFSTYGMNWVRQVPGQGLEWVSFVRHDGSNKYYSDSVKGRFTIFRDNSNNKLYLQMNNLRAEDTAVYYCAKDVLDCSRADCFIYYYYMDVWGKGTLVTVSS
VL: DIQMTQSPSSVSASPGDRVTITCRASQTISGWLAWYQQKPGKAPKLLIYDVSTLQSGVPSRFSGGGSGTEFTFTISSLQPEDYATYFCQQGNRIPLSFGGGTRVEIK
In the case of B13, the Neutralization, IC50 ng/mL was > 200000 ng/mL.
